Laboratory results published in publication PMC11203576.

Experiments:
Experiment in all cases: SPR; Biacore T200; […] (0.01 M HEPES, 0.15 M NaCl, 3 mM EDTA, 0.05% surfactant P20, […]
[1] = target: SARS-CoV-2 spike protein RBD, Alpha variant, sfGFP fusion (SARS-CoV-2) (UniProt P0DTC2)
[2] = target: SARS-CoV-2 spike protein RBD, Delta variant, sfGFP fusion (SARS-CoV-2) (UniProt P0DTC2)
[3] = target: SARS-CoV-2 spike protein RBD, Omicron variant, sfGFP fusion (SARS-CoV-2) (UniProt P0DTC2)

Substance	Kd [1] [nM]	Kd [2] [nM]	Kd [3] [nM]
Jacalin (natural protein)	320	339	478
Recombinant Microcystis viridis NIES-102 lectin (rMVL) (from UniProt Q9RHG4 1-114) (natural protein)	–	–	2730
